Assay results from patent US6994987B1, “Process for producing tripeptides” (Calpis Co., Ltd., priority 1999, dated 2006).
Each block holds one molecule with its values, some of them ahead of it.

What was measured:
[1] = tested on: Aminipeptidase I + Carboxypeptidase Y; experiment: Reactivity of peptidase formulations against synthetic peptides: aminopeptidase I + carboxypeptidase Y; format: biochemical; conditions: phosphate buffer pH 5.3, 37° C. 3 hours, HPLC
Experimental: (§1) Peptides shown in Table 1 were chemically synthesized. […] All of these synthetic peptides were synthesized with the automatic peptide synthesizing machine PPSM-8 (manufactured by Shimadzu Corporation).
(§2) Each synthetic peptide was dissolved at the concentration of 10 μg/ml in 100 mM phosphate buffer pH 5.3 as to Experiments 1-1 to 1-4, 1-10 to 1-12, 1-16 and 1-21, or in 50 mM Tris-HCl buffer pH 8.0 as to other Experiments. Each of various peptidase formulations shown in Table 1 was then added so that the concentration thereof became 0.01 μg/ml, and the reaction was performed at 37° C. for 3 hours. After the enzyme reaction, the mixture was analyzed by the reverse phase high performance liquid chromatography (HPLC). […] The fractions of the detected peak were collected and amino acid sequence analysis was performed by the automatic peptide analyzer model PPSQ-10 (manufactured by Shimadzu Corporation). […]

[2] = tested on: Aminopeptidase + Carboxypeptidase Y; experiment: Reactivity of peptidase formulations against synthetic peptides: aminopeptidase A + carboxypeptidase Y; format: biochemical; conditions: 0.01 μg/ml, peptide 10 μg/ml, phosphate buffer pH 5.3, 37° C. 3 hours, HPLC
Experimental: as §1, §2

[3] = tested on: Leucine aminopeptidase, microsomal + Carboxypeptidase Y; experiment: Reactivity of peptidase formulations against synthetic peptides: LM + carboxypeptidase Y; format: biochemical; conditions: phosphate buffer pH 5.3, 37° C. 3 hours, HPLC
Experimental: as §1, §2

[4] = tested on: Leucine aminopeptidase, cytosol + Carboxypeptidase Y; experiment: Reactivity of peptidase formulations against synthetic peptides: LC + carboxypeptidase Y; format: biochemical; conditions: phosphate buffer pH 5.3, 37° C. 3 hours, HPLC
Experimental: as §1, §2

[5] = target: T1, Leucine aminopeptidase, microsomal (Sus scrofa, UniProt P15145); experiment: Reactivity of peptidase formulations against synthetic peptides: LM alone; format: biochemical, porcine; conditions: no carboxypeptidase, Tris-HCl pH 8.0, 37° C. 3 hours, HPLC
T1 construct: purchased Sigma Chemical Co; host or cells: porcine kidney
T1 sequence (P15145 1-963): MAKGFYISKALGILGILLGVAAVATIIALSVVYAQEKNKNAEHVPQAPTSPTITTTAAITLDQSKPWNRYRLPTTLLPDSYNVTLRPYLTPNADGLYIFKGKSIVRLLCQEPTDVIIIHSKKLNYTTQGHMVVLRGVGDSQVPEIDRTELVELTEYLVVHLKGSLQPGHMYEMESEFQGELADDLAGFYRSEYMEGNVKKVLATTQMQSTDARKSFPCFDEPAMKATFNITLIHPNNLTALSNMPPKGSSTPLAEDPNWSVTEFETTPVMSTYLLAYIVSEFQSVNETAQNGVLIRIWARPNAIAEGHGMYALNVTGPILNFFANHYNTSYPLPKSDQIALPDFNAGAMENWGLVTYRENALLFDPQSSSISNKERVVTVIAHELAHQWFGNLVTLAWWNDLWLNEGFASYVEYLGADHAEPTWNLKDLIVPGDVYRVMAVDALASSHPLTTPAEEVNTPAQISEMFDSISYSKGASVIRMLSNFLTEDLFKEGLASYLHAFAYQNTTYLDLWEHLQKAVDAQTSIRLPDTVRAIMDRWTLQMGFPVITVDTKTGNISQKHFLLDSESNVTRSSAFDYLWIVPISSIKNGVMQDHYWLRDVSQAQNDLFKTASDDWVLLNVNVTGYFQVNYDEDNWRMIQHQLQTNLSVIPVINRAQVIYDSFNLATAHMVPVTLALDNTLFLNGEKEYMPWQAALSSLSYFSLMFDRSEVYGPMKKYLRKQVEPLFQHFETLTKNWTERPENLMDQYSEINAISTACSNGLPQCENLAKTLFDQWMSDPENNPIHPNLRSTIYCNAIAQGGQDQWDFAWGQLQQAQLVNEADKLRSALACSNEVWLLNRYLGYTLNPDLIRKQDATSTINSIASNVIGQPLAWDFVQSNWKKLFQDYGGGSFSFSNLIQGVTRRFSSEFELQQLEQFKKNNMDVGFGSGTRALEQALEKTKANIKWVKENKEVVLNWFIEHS
Experimental: as §1, §2

[6] = target: T2, Leucine aminopeptidase, cytosol (Sus scrofa, UniProt P28839); experiment: Reactivity of peptidase formulations against synthetic peptides: LC alone; format: biochemical, porcine; conditions: no carboxypeptidase, Tris-HCl pH 8.0, 37° C. 3 hours, HPLC
T2 construct: purchased Sigma Chemical Co; host or cells: porcine kidney
T2 sequence (P28839 1-519): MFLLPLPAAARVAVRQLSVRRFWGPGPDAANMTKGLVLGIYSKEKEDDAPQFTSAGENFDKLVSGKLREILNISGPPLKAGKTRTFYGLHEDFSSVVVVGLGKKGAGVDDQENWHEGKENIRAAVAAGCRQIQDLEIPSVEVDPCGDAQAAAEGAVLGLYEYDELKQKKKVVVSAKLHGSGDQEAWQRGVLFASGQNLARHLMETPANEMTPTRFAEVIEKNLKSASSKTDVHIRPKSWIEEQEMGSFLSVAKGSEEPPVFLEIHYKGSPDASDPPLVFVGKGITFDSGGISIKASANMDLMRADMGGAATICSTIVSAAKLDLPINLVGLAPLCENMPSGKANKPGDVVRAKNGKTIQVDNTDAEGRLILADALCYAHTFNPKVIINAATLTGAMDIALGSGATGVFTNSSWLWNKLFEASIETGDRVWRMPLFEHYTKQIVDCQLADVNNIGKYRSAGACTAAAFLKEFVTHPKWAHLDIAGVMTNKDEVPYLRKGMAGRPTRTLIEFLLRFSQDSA
Experimental: as §1, §2

[7] = target: T3, Aminipeptidase I (Streptomyces griseus subsp. griseus, UniProt P80561); experiment: Reactivity of peptidase formulations against synthetic peptides: aminopeptidase I alone; format: biochemical; conditions: no carboxypeptidase, Tris-HCl pH 8.0, 37° C. 3 hours, HPLC
T3 construct: purchased Sigma Chemical Co
T3 sequence (P80561 46-329): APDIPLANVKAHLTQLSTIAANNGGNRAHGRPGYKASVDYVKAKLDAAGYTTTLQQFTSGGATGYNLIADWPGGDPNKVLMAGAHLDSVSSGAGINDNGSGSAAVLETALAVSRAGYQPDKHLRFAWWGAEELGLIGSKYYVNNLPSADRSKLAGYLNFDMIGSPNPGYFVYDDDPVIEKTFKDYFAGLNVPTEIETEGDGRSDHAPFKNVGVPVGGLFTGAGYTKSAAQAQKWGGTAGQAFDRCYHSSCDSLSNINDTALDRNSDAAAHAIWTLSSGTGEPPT
Experimental: as §1, §2

[8] = tested on: Aminopeptidase; experiment: Reactivity of peptidase formulations against synthetic peptides: aminopeptidase A alone; format: biochemical; conditions: no carboxypeptidase, Tris-HCl pH 8.0, 37° C. 3 hours, HPLC
Experimental: as §1, §2

[9] = tested on: synthetic peptide consisting of the 28 amino acids (SEQ ID NO: 28); experiment: Two step reaction of proteinase and fraction 4 on the 28 amino acid synthetic peptide; format: biochemical; conditions: proteinase 0.1 μg/ml on 28-mer 10 μg/ml, pH 6.1, 37° C. 5 hours, heat inactivation, then fraction 4, HPLC
Experimental: To 10 μg/ml of the synthetic peptide consisting of the 28 amino acids that is the same as the one used in Experiment 2 (in 100 mM phosphate buffer pH 6.1), each of the commercially available proteinase enzymes for food processing shown in Table 4 was added at 0.1 μg/ml. The mixture was reacted at 37° C. for 5 hours. After finishing the reaction, the reacted liquid was heated at 100° C. for 5 minutes for inactivating the proteinase, and then reacted with the fraction 4 obtained in Experiment 4.

[10] = tested on: synthetic peptide consisting of 28 amino acids (SEQ ID NO: 28); experiment: Production of the intermediate peptides with proteinase from the 28 amino acid synthetic peptide; format: biochemical; conditions: enzyme 0.1 μg/ml, 28-mer 10 μg/ml, phosphate buffer pH 6.1, 37° C. 5 hours; HPLC and sequence analysis
Description: A peptide consisting of 28 amino acids and having a sequence identical with a part of casein sequence and containing the sequence Ile-Pro-Pro and Val-Pro-Pro therein was chemically synthesized by the automatic peptide synthesizer model […]. The sequence of the peptide synthesized is as follows: […](SEQ ID NO: 28)
This synthetic peptide was reacted with various commercially available proteinase formulations, seeking for a proteinase capable of producing a peptide containing the sequence Ile-Pro-Pro or Val-Pro-Pro therein but containing no Pro other than these sequences.
That is, 0.1 μg/ml of each enzyme was added to 10 μg/ml of the synthetic peptide (in 100 mM phosphate buffer pH 6.1). The mixture was reacted at 37° C. for 5 hours to obtain a reacted liquid. The reacted liquid was analyzed by the reverse phase high performance liquid chromatography (HPLC). The fractions of the detected peptide peaks were collected and amino acid sequence analysis was performed by the automatic peptide analyzer model PPSQ-10.

- Existence of IPP or VPP peaks [1]: IPP
- Existence of IPP or VPP peaks [2]: IPP
- Existence of IPP or VPP peaks [3]: IPP
- Existence of IPP or VPP peaks [4]: IPP
Molecule: Asn Ile Pro Pro Leu (NIPPL)

Molecule: Val Val Pro Pro (VVPP)
- Existence of IPP or VPP peaks [5]: VPP
- Existence of IPP or VPP peaks [6]: VPP
- Existence of IPP or VPP peaks [7]: VPP
- Existence of IPP or VPP peaks [8]: VPP

- Production of the tripeptides Ile-Pro-Pro and Val-Pro-Pro [9]: Yes
B1: Papain: proteinase, Papaya Latex, Sigma Chemical Co. (protein, UniProt P00784 134-345, looked up)
Papain: IPEYVDWRQKGAVTPVKNQGSCGSCWAFSAVVTIEGIIKIRTGNLNEYSEQELLDCDRRSYGCNGGYPWSALQLVAQYGIHYRNTYPYEGVQRYCRSREKGPYAAKTDGVRQVQPYNEGALLYSIANQPVSVVLEAAGKDFQLYRGGIFVGPCGNKVDHAVAAVGYGPNYILIKNSWGTGWGENGYIRIKRGTGNSYGVCGLYTSSFYPVKN
- Production of the tripeptides Ile-Pro-Pro and Val-Pro-Pro ([9]; listed as papain): can produce the tripeptides Ile-Pro-Pro and Val-Pro-Pro
- Peptides produced in the reaction mixture [10]: a peptide Val-Pro-Pro-Phe-Leu as the peptide containing the sequence Val-Pro-Pro, and peptides Asn-Ile-Pro-Pro-Leu-Thr and Ile-Pro-Pro-Leu-Thr
